Results published in US20170145069A1 (Novo Nordisk, published 2017).
Substitutions are numbered along the chain they refer to. *1 amine or outer side, *2 acyl side, *3 side chain or, on linkers, in order; H or OH if unused. Where no end group is shown, it is not given here. Side-chain parts run from the residue outwards. [ ]: non-standard residue; d: D form. The star is where a group is joined. Undecanoyl(11-OPh(4-COOH)) = O=C(O)c1ccc(OCCCCCCCCCCC(=O)*)cc1; Decanoyl(10-(4-HOOC-PhO)) = O=C(O)c1ccc(OCCCCCCCCCC(=O)*)cc1; γGlu = O=C(O)[C@H](CCC(=O)[*:2])N[*:1]; εLys = N[C@@H](CCCCN[*:1])C(=O)[*:2]; 13‑carboxytridecanoyl = C14 diacid; AEEA = NCCOCCOCC(=O)O; Aib = CC(C)(N)C(=O)O

B1: GLP-1 derivative of Example 26 (Chem. 45), N^eps26,N^eps37-diacylated [Imp^7,Aib^8,Arg^34,Lys^37]-GLP-1-(7-37)-peptide (peptide)
peptide: XXEGTFTSDVSSYLEGQAAKEFIAWLVRGRK
modifications: Imp (imidazopropionyl, des-amino histidine) at 7; Aib at 8; eps-amino of Lys26 and Lys37 each acylated with 12-(4-carboxyphenoxy)dodecanoyl-gGlu-Ser-Ser-Gly-Ser-Ser-Gly
B2: Comparative compound of Example 2a: Compound of Example 17, Chem. 36, in WO 2011/080103 (peptide)
peptide: B1 peptide with X1H, W25H, R28Q
modifications: Aib at 8; eps-amino of Lys26 and Lys37 each acylated with 10-(4-carboxyphenoxy)decanoyl via the gGlu-2xOEG linker (as Example 2, only the linker differs)
B3: GLP-1 derivative of Example 2 (Chem. 21), N^eps26,N^eps37-diacylated [Aib^8,His^31,Gln^34,Lys^37]-GLP-1-(7-37)-peptide (peptide)
peptide: B1 peptide with X1H, W25H, R28Q
modifications: Aib at 8; eps-amino of Lys26 and Lys37 each acylated with 10-(4-carboxyphenoxy)decanoyl-gGlu-Ser-Ser-Gly-Ser-Ser-Gly
B4: GLP-1 derivative of Example 31 (Chem. 50), N^eps26,N^eps37-diacylated [Aib^8,Arg^34,Lys^37]-GLP-1-(7-37)-peptide (peptide)
peptide: B1 peptide with X1H
modifications: Aib at 8; eps-amino of Lys26 and Lys37 each acylated with 11-(4-carboxyphenoxy)undecanoyl-gGlu-Ser-Ser-Gly-Ser-Ser-Gly
B5: GLP-1 derivative of Example 25 (Chem. 44), N^eps26,N^eps37-diacylated [Aib^8,Arg^34,Lys^37]-GLP-1-(7-37)-peptide (peptide)
peptide: B1 peptide with X1H
modifications: Aib at 8; eps-amino of Lys26 and Lys37 each acylated with 12-(4-carboxyphenoxy)dodecanoyl-gGlu-Ser-Ser-Gly-Ser-Ser-Gly-eps-Lys
B6: GLP-1 derivative of Example 12 (Chem. 31), N^eps26,N^eps37-diacylated [Aib^8,His^34,Lys^37]-GLP-1-(7-37)-peptide (peptide)
peptide: B1 peptide with X1H, R28H
modifications: Aib at 8; eps-amino of Lys26 and Lys37 each acylated with 13-carboxytridecanoyl-gGlu-Ser-Ser-Gly-Ser-Ser-Gly
B7: GLP-1 derivative of Example 24 (Chem. 43), N^eps26,N^eps37-diacylated [Aib^8,Arg^34,Lys^37]-GLP-1-(7-37)-peptide (peptide)
peptide: B1 peptide with X1H
modifications: Aib at 8; eps-amino of Lys26 and Lys37 each acylated with 12-(4-carboxyphenoxy)dodecanoyl-gGlu-Ser-Ser-Gly-Ser-Ser-Gly
B8: GLP-1 derivative of Example 29 (Chem. 48), N^eps26,N^eps37-diacylated [Aib^8,Arg^34,Lys^37]-GLP-1-(7-37)-peptide (peptide)
peptide: B1 peptide with X1H
modifications: Aib at 8; eps-amino of Lys26 and Lys37 each acylated with 12-(4-carboxyphenoxy)dodecanoyl-gGlu-Ser-Gly-Ser-eps-Lys

Molecular target: T1, human GLP-1 receptor (human, UniProt P43220 24-463)
Test: cell-based or functional assay

Binder | In vitro potency (AlphaScreen cAMP; membranes) EC50
B1 | 0.446 nM
B2 | 0.582 nM
B3 | 0.116 nM
B4 | 0.027 nM
B5 | 0.252 nM
H[Aib]EGTFTSDVSK([AEEA-AEEA-γGlu-Decanoyl(10-(4-HOOC-PhO))])YLEEQAAK([AEEA-AEEA-γGlu-Decanoyl(10-(4-HOOC-PhO))])EFIAWLVQGRG [Comparative compound of Example 7a: Compound of Example 2, Chem. 21, in WO 2012/062803] | 0.395 nM
B6 | 0.145 nM
B7 | 0.166 nM
B8 | 0.238 nM
H[Aib]EGTFTSDVSK([AEEA-AEEA-γGlu-13‑carboxytridecanoyl])YLEEQAVREFIAK([AEEA-AEEA-γGlu-13‑carboxytridecanoyl])LVRGRG [Comparative compound of Example 6a: Compound of Example 74, Chem. 93, in WO 2012/062803] | 0.062 nM
HAEGTFTSDVSSYLEGQAAK([AEEA-AEEA-γGlu-Decanoyl(10-(4-HOOC-PhO))])EFIAHLVQGRK([AEEA-AEEA-γGlu-Decanoyl(10-(4-HOOC-PhO))]) [Comparative compound of Example 3a: Compound of Example 33, Chem. 52, in WO 2011/080103] | 0.506 nM
HAEGTFTSDVSK([AEEA-AEEA-γGlu-Decanoyl(10-(4-HOOC-PhO))])YLEEQAAK([AEEA-AEEA-γGlu-Decanoyl(10-(4-HOOC-PhO))])EFIAWLVQGRG [Comparative compound of Example 5a: Compound of Example 38, Chem. 57, in WO 2012/062803] | 0.224 nM
H[Aib]EGTFTSDVSK([εLys-Ser-Ser-Ser-Ser-Ser-Ser-γGlu-Undecanoyl(11-OPh(4-COOH))])YLEGQAAK([εLys-Ser-Ser-Ser-Ser-Ser-Ser-γGlu-Undecanoyl(11-OPh(4-COOH))])EFIAWLVQGRG | 0.181 nM

Molecular target: T1, human GLP-1 receptor
Test: SPA, displacement of 125I-GLP-1(7-36)NH2, BHK membranes, 0.001% HSA
Experimental: Test compounds, membranes, SPA-particles and [¹²⁵I] ]-GLP-1(7-36)NH₂ were diluted in assay buffer. 50 ul (micro liter) buffer (“low albumin” experiment containing 0.001% HSA) was added to Optiplate, and 25 ul of test compounds were added. 5-10 μg membrane protein/sample was added (50 μl) corresponding to 0.1-0.2 mg protein/ml (to be preferably optimised for each membrane preparation). SPA-particles (Wheatgerm agglutinin SPA beads, Perkin Elmer, #RPNQ0001) were added in an amount of 0.5 mg/well (50 μl). The incubation was started with [¹²⁵I]-GLP-1]-(7-36)NH₂ (final concentration 0.06 nM corresponding to 49.880 DPM, 25 μl). The plates were sealed with PlateSealer and incubated for 120 minutes at 30° C. while shaking. The plates were centrifuged (1500 rpm, 10 min) and counted in Topcounter.
The IC₅₀ value was read from the curve as the concentration which displaces 50% of ¹²⁵I-GLP-1 from the receptor.

Binder | IC50
B1 | 0.53 nM
B2 | 44.5 nM
B3 | 8.99 nM
B4 | 0.17 nM
B5 | 0.27 nM
H[Aib]EGTFTSDVSK([AEEA-AEEA-γGlu-Decanoyl(10-(4-HOOC-PhO))])YLEEQAAK([AEEA-AEEA-γGlu-Decanoyl(10-(4-HOOC-PhO))])EFIAWLVQGRG [Comparative compound of Example 7a: Compound of Example 2, Chem. 21, in WO 2012/062803] | 7.03 nM
B6 | 4.61 nM
B7 | 0.19 nM
B8 | 0.27 nM
H[Aib]EGTFTSDVSK([AEEA-AEEA-γGlu-13‑carboxytridecanoyl])YLEEQAVREFIAK([AEEA-AEEA-γGlu-13‑carboxytridecanoyl])LVRGRG [Comparative compound of Example 6a: Compound of Example 74, Chem. 93, in WO 2012/062803] | 0.8 nM
HAEGTFTSDVSSYLEGQAAK([AEEA-AEEA-γGlu-Decanoyl(10-(4-HOOC-PhO))])EFIAHLVQGRK([AEEA-AEEA-γGlu-Decanoyl(10-(4-HOOC-PhO))]) [Comparative compound of Example 3a: Compound of Example 33, Chem. 52, in WO 2011/080103] | 51.5 nM
HAEGTFTSDVSK([AEEA-AEEA-γGlu-Decanoyl(10-(4-HOOC-PhO))])YLEEQAAK([AEEA-AEEA-γGlu-Decanoyl(10-(4-HOOC-PhO))])EFIAWLVQGRG [Comparative compound of Example 5a: Compound of Example 38, Chem. 57, in WO 2012/062803] | 5.8 nM
H[Aib]EGTFTSDVSK([εLys-Ser-Ser-Ser-Ser-Ser-Ser-γGlu-Undecanoyl(11-OPh(4-COOH))])YLEGQAAK([εLys-Ser-Ser-Ser-Ser-Ser-Ser-γGlu-Undecanoyl(11-OPh(4-COOH))])EFIAWLVQGRG | 0.42 nM

Molecular target: T1, human GLP-1 receptor
Test: cell-based or functional assay
Remark: another data set of the same source

Binder | In vitro potency (CRE-luciferase) low albumin EC50
B1 | 0.0058 nM
B2 | 0.132 nM
B3 | 0.023 nM
B4 | 0.0028 nM
H[Aib]EGTFTSDVSK([AEEA-AEEA-γGlu-Decanoyl(10-(4-HOOC-PhO))])YLEEQAAK([AEEA-AEEA-γGlu-Decanoyl(10-(4-HOOC-PhO))])EFIAWLVQGRG [Comparative compound of Example 7a: Compound of Example 2, Chem. 21, in WO 2012/062803] | 0.017 nM
B6 | 0.0098 nM
B7 | 0.0052 nM
B8 | 0.005 nM
H[Aib]EGTFTSDVSK([AEEA-AEEA-γGlu-13‑carboxytridecanoyl])YLEEQAVREFIAK([AEEA-AEEA-γGlu-13‑carboxytridecanoyl])LVRGRG [Comparative compound of Example 6a: Compound of Example 74, Chem. 93, in WO 2012/062803] | 0.062 nM
HAEGTFTSDVSSYLEGQAAK([AEEA-AEEA-γGlu-Decanoyl(10-(4-HOOC-PhO))])EFIAHLVQGRK([AEEA-AEEA-γGlu-Decanoyl(10-(4-HOOC-PhO))]) [Comparative compound of Example 3a: Compound of Example 33, Chem. 52, in WO 2011/080103] | 0.124 nM
HAEGTFTSDVSK([AEEA-AEEA-γGlu-Decanoyl(10-(4-HOOC-PhO))])YLEEQAAK([AEEA-AEEA-γGlu-Decanoyl(10-(4-HOOC-PhO))])EFIAWLVQGRG [Comparative compound of Example 5a: Compound of Example 38, Chem. 57, in WO 2012/062803] | 0.025 nM
H[Aib]EGTFTSDVSK([εLys-Ser-Ser-Ser-Ser-Ser-Ser-γGlu-Undecanoyl(11-OPh(4-COOH))])YLEGQAAK([εLys-Ser-Ser-Ser-Ser-Ser-Ser-γGlu-Undecanoyl(11-OPh(4-COOH))])EFIAWLVQGRG | 0.011 nM
